# Experimental data from patent US20160090401A1 (UNIVERSITY OF BRISTOL, published 2016).
# Bridge positions count the residues as written; N and C are the ends. I, II: the chains in the order shown.
# T1: CC-Di-BI (N-terminal acetyl; C-terminal amide)
# T1 construct: also called basic peptide of CC-Di-AIBI
# T1 peptide: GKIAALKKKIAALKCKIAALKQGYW
# T2: CC-Tri3-CC-Di-BQ (N-terminal acetyl; C-terminal amide; Cys in an asymmetric disulfide with the Cys of the trimer chain; N-terminal acetyl; C-terminal amide; Cys in an asymmetric disulfide with the Cys of the CC-Di-BQ …)
# T2 peptide 1: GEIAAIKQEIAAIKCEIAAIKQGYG
# T2 peptide 2: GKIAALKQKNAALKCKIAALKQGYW
# T3: CC-Di-AB (N-terminal acetyl (Ac-); C-terminal amide (printed -NH))
# T3 construct: also called heterodimer CC-Di-AB; heterodimeric coiled coil
# T3 peptide 1: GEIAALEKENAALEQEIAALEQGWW
# T3 peptide 2: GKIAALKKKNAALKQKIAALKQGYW
# B1: CC-Di-AI (peptide)
# peptide: Ac-GEIAALEKEIAALECEIAALEQGWW-NH2
# notes: also called acidic peptide of CC-Di-AIBI
# B2: CC-Tri3-CC-Di-AQ (other)
# peptide 1: Ac-GEIAAIKQEIAAIKCEIAAIKQGYG-NH2
# peptide 2: Ac-GEIAALEQENAALECEIAALEQGWW-NH2
# modifications: disulfide I:15-II:15 (inferred)
# B3: CC-Di-B (peptide)
# peptide: Ac-GKIAALKKKNAALKQKIAALKQGYW-NH2
# notes: Free module
# B4: CC-Tri3 (peptide)
# peptide: Ac-GEIAAIKKEIAAIKQEIAAIKQGYG-NH2
# notes: also called homotrimer CC-Tri3; homotrimeric coiled coil
# Legend:
# CC-Di-B = target: B3; assay: CD-monitored thermal denaturation over a range of peptide concentrations, extrapolated to 20 °C; dissociation of the heterodimer (two-state)
# [1] = target: the molecule itself; assay: CD spectroscopy of the peptide alone (no homomeric coiled coil)
# CC-Di-BI = target: T1, CC-Di-BI; assay: method not stated for this variant
# CC-Tri3-CC-Di-BQ = target: T2, CC-Tri3-CC-Di-BQ; assay: mixing with the respective partner in PBS, 50 µM; SEM
# [2] = target: the molecule itself; assay: CD-monitored thermal denaturation over a range of peptide concentrations, extrapolated to 20 °C; dissociation of the homotrimer (two-state)
# CC-Di-AB = target: T3, CC-Di-AB; assay: CD thermal melting of the mixture, the same as the average of the two independent profiles
binder,measurement,setting,value
Ac-GEIAALEKENAALEQEIAALEQGWW-NH2 (Free module) [CC-Di-A],Kd,CC-Di-B,58.3 nM
same,binding result,[1],no binding (tested: micromolar range)
B1,affinity relative to the CC-Di-AB parent,CC-Di-BI,> 100 fold
B2,binding result,CC-Tri3-CC-Di-BQ,binds
B3,binding result,[1],no binding (tested: micromolar range)
B4,Kd,[2],0.0399 pM
same,binding result,CC-Di-AB,no binding
